Experimental findings from patent US20130052191A1 (Sanofi, published 2013) are described below.

The target of assay [1] is α2β1 integrin (VLA-2) on HT1080 cells (UniProt P17301 30-1181; P05556 21-798). Put plainly: cell-based or functional assay.
The target of assay [2] is complement component C1q (in baby rabbit complement) (rabbit). Put plainly: cell-based or functional assay.

Sequence of α2β1 integrin (VLA-2) on HT1080 cells (P17301 30-1181, chain 1 of 2): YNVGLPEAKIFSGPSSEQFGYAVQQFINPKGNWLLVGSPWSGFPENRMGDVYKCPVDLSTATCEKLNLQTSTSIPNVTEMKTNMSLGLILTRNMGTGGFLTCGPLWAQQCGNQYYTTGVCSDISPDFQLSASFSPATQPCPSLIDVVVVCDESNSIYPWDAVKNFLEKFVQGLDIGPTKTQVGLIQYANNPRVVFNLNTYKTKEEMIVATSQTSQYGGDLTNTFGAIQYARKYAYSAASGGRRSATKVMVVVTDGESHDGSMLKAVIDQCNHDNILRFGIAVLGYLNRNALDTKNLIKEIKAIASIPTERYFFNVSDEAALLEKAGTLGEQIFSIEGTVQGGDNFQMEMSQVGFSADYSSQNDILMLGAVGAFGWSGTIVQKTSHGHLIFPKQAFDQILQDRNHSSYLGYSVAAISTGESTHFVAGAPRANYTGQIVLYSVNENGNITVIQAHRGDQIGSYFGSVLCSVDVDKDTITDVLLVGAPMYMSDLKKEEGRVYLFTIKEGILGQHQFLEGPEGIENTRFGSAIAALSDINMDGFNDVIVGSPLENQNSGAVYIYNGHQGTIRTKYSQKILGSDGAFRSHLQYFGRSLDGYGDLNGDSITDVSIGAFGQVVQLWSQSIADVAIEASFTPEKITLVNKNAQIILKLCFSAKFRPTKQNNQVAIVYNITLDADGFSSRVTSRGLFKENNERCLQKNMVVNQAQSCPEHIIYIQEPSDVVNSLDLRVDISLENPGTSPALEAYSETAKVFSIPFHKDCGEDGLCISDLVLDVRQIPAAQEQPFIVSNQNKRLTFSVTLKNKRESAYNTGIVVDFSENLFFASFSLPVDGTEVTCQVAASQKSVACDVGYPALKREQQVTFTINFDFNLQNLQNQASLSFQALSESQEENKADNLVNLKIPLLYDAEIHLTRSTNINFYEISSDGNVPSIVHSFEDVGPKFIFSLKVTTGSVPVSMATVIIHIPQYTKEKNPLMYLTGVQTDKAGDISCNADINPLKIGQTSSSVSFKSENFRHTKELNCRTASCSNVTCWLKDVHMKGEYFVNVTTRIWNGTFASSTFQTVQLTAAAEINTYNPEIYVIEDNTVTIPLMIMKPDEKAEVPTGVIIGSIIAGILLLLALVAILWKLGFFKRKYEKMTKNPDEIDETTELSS
Sequence of α2β1 integrin (VLA-2) on HT1080 cells (P05556 21-798, chain 2 of 2): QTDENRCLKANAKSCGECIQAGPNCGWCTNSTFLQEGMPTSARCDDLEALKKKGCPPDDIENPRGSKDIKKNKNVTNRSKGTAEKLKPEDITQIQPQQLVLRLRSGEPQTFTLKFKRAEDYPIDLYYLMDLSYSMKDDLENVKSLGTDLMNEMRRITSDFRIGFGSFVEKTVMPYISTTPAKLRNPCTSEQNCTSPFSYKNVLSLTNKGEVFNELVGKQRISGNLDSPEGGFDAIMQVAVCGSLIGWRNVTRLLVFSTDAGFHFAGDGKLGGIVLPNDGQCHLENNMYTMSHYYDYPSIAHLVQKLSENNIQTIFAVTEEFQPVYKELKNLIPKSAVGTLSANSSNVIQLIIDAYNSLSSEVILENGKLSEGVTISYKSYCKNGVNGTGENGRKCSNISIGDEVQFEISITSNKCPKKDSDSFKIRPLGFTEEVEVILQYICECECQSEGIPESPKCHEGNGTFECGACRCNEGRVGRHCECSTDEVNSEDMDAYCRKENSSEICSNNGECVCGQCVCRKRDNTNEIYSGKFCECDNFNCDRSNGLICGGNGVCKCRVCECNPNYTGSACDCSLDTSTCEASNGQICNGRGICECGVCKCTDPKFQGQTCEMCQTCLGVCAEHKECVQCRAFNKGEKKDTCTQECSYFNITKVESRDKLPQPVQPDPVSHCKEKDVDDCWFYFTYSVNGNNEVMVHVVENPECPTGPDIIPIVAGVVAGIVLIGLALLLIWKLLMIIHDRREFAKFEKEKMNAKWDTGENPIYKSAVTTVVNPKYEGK

B1: anti-VLA-2 IgG1-S298A/S324N (antibody)
heavy: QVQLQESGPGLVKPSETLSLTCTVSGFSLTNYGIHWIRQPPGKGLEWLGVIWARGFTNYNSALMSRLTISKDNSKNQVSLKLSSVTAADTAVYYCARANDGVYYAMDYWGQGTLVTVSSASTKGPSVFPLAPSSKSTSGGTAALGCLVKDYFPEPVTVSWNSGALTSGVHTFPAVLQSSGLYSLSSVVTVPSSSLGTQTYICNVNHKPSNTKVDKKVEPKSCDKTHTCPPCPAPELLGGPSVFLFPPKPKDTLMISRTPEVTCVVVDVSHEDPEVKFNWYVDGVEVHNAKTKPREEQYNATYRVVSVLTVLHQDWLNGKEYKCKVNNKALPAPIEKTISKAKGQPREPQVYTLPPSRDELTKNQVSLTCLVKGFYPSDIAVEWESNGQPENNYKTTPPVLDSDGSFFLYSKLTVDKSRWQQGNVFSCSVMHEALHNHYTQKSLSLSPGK
light: DFVMTQSPAFLSVTPGEKVTITCSAQSSVNYIHWYQQKPDQAPKKLIYDTSKLASGVPSRFSGSGSGTDYTFTISSLEAEDAATYYCQQWTTNPLTFGQGTKVEIKRTVAAPSVFIFPPSDEQLKSGTASVVCLLNNFYPREAKVQWKVDNALQSGNSQESVTEQDSKDSTYSLSSTLTLSKADYEKHKVYACEVTHQGLSSPVTKSFNRGEC
Turning to B1, the “ADCC fold increase (LDH release, HT1080 target cells with human PBMC, antibody 0.1 µg/ml)” value (“ADCC fold increase” for short) in assay [1] is 2 fold. The “CDC fold increase (LDH release, HT1080 cells, baby rabbit complement, antibody 1 µg/ml)” value in assay [2] is at least 6.6 fold.

B2: anti-VLA-2 IgG-3133 (antibody)
heavy: QVQLQESGPGLVKPSETLSLTCTVSGFSLTNYGIHWIRQPPGKGLEWLGVIWARGFTNYNSALMSRLTISKDNSKNQVSLKLSSVTAADTAVYYCARANDGVYYAMDYWGQGTLVTVSSASTKGPSVFPLAPCSRSTSGGTAALGCLVKDYFPEPVTVSWNSGALTSGVHTFPAVLQSSGLYSLSSVVTVPSSSLGTQTYTCNVNHKPSNTKVDKRVEPKSCDKTHTCPPCPAPELLGGPSVFLFPPKPKDTLMISRTPEVTCVVVDVSHEDPEVQFKWYVDGVEVHNAKTKPREEQYNSTFRVVSVLTVLHQDWLNGKEYKCKVSNKALPAPIEKTISKTKGQPREPQVYTLPPSREEMTKNQVSLTCLVKGFYPSDIAVEWESSGQPENNYNTTPPMLDSDGSFFLYSKLTVDKSRWQQGNIFSCSVMHEALHNRFTQKSLSLSPGK
light: DFVMTQSPAFLSVTPGEKVTITCSAQSSVNYIHWYQQKPDQAPKKLIYDTSKLASGVPSRFSGSGSGTDYTFTISSLEAEDAATYYCQQWTTNPLTFGQGTKVEIKRTVAAPSVFIFPPSDEQLKSGTASVVCLLNNFYPREAKVQWKVDNALQSGNSQESVTEQDSKDSTYSLSSTLTLSKADYEKHKVYACEVTHQGLSSPVTKSFNRGEC
Turning to B2, the “CDC fold increase (LDH release, HT1080 cells, baby rabbit complement, antibody 1 µg/ml)” value in assay [2] was at least 8.6 fold.

B3: anti-VLA-2 IgG1-S298A (antibody)
heavy: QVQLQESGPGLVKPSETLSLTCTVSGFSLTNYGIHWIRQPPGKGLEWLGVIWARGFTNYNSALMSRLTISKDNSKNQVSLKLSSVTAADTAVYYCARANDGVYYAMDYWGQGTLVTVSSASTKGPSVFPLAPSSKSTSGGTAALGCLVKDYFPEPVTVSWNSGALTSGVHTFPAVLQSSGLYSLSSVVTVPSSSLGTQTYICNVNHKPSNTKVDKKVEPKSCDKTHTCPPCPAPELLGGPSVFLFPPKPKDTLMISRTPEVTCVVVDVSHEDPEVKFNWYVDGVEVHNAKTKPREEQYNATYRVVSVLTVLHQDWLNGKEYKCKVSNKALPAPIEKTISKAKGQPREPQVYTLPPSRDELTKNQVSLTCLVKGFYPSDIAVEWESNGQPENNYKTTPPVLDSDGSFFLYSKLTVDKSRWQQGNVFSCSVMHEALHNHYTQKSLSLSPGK
light: DFVMTQSPAFLSVTPGEKVTITCSAQSSVNYIHWYQQKPDQAPKKLIYDTSKLASGVPSRFSGSGSGTDYTFTISSLEAEDAATYYCQQWTTNPLTFGQGTKVEIKRTVAAPSVFIFPPSDEQLKSGTASVVCLLNNFYPREAKVQWKVDNALQSGNSQESVTEQDSKDSTYSLSSTLTLSKADYEKHKVYACEVTHQGLSSPVTKSFNRGEC
As for B3, the “ADCC fold increase” value in assay [1] stood at 1.8 fold.

B4: anti-VLA-2 IgG1 (antibody)
heavy: not shown
light: DFVMTQSPAFLSVTPGEKVTITCSAQSSVNYIHWYQQKPDQAPKKLIYDTSKLASGVPSRFSGSGSGTDYTFTISSLEAEDAATYYCQQWTTNPLTFGQGTKVEIKRTVAAPSVFIFPPSDEQLKSGTASVVCLLNNFYPREAKVQWKVDNALQSGNSQESVTEQDSKDSTYSLSSTLTLSKADYEKHKVYACEVTHQGLSSPVTKSFNRGEC
With B4, the “ADCC fold increase” value in assay [1] is 1.7 fold.

B5: anti-VLA-2 IgG-1133 (antibody)
heavy: QVQLQESGPGLVKPSETLSLTCTVSGFSLTNYGIHWIRQPPGKGLEWLGVIWARGFTNYNSALMSRLTISKDNSKNQVSLKLSSVTAADTAVYYCARANDGVYYAMDYWGQGTLVTVSSASTKGPSVFPLAPSSKSTSGGTAALGCLVKDYFPEPVTVSWNSGALTSGVHTFPAVLQSSGLYSLSSVVTVPSSSLGTQTYICNVNHKPSNTKVDKKVEPKSCDKTHTCPPCPAPELLGGPSVFLFPPKPKDTLMISRTPEVTCVVVDVSHEDPEVQFKWYVDGVEVHNAKTKPREEQYNSTFRVVSVLTVLHQDWLNGKEYKCKVSNKALPAPIEKTISKTKGQPREPQVYTLPPSREEMTKNQVSLTCLVKGFYPSDIAVEWESSGQPENNYNTTPPMLDSDGSFFLYSKLTVDKSRWQQGNIFSCSVMHEALHNRFTQKSLSLSPGK
light: DFVMTQSPAFLSVTPGEKVTITCSAQSSVNYIHWYQQKPDQAPKKLIYDTSKLASGVPSRFSGSGSGTDYTFTISSLEAEDAATYYCQQWTTNPLTFGQGTKVEIKRTVAAPSVFIFPPSDEQLKSGTASVVCLLNNFYPREAKVQWKVDNALQSGNSQESVTEQDSKDSTYSLSSTLTLSKADYEKHKVYACEVTHQGLSSPVTKSFNRGEC
Take B5: the “CDC fold increase (LDH release, HT1080 cells, baby rabbit complement, antibody 1 µg/ml)” value in assay [2] was at least 5.6 fold.

B6: anti-VLA-2 IgG1-S324N (antibody)
heavy: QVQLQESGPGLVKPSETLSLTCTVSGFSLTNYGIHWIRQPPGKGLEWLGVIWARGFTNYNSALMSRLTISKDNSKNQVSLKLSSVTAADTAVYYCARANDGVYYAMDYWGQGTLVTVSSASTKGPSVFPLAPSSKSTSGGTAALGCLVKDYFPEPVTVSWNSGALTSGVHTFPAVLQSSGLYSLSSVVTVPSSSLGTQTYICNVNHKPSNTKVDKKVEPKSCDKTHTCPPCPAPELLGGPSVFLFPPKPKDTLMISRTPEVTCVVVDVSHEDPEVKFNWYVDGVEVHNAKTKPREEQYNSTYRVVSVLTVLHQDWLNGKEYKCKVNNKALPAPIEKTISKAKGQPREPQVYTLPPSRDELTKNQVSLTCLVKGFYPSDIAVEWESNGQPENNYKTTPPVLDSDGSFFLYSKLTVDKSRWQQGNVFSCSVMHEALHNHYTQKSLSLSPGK
light: DFVMTQSPAFLSVTPGEKVTITCSAQSSVNYIHWYQQKPDQAPKKLIYDTSKLASGVPSRFSGSGSGTDYTFTISSLEAEDAATYYCQQWTTNPLTFGQGTKVEIKRTVAAPSVFIFPPSDEQLKSGTASVVCLLNNFYPREAKVQWKVDNALQSGNSQESVTEQDSKDSTYSLSSTLTLSKADYEKHKVYACEVTHQGLSSPVTKSFNRGEC
For the molecule B6, in assay [2], the “CDC fold increase (LDH release, HT1080 cells, baby rabbit complement, antibody 1 µg/ml)” value was at least 6.4 fold.

B7: anti-VLA-2 IgG3 (antibody)
heavy: QVQLQESGPGLVKPSETLSLTCTVSGFSLTNYGIHWIRQPPGKGLEWLGVIWARGFTNYNSALMSRLTISKDNSKNQVSLKLSSVTAADTAVYYCARANDGVYYAMDYWGQGTLVTVSSASTKGPSVFPLAPCSRSTSGGTAALGCLVKDYFPEPVTVSWNSGALTSGVHTFPAVLQSSGLYSLSSVVTVPSSSLGTQTYTCNVNHKPSNTKVDKRVELKTPLGDTTHTCPRCPEPKSCDTPPPCPRCPEPKSCDTPPPCPRCPEPKSCDTPPPCPRCPAPELLGGPSVFLFPPKPKDTLMISRTPEVTCVVVDVSHEDPEVQFKWYVDGVEVHNAKTKPREEQYNSTFRVVSVLTVLHQDWLNGKEYKCKVSNKALPAPIEKTISKTKGQPREPQVYTLPPSREEMTKNQVSLTCLVKGFYPSDIAVEWESSGQPENNYNTTPPMLDSDGSFFLYSKLTVDKSRWQQGNIFSCSVMHEALHNRFTQKSLSLSPGK
light: DFVMTQSPAFLSVTPGEKVTITCSAQSSVNYIHWYQQKPDQAPKKLIYDTSKLASGVPSRFSGSGSGTDYTFTISSLEAEDAATYYCQQWTTNPLTFGQGTKVEIKRTVAAPSVFIFPPSDEQLKSGTASVVCLLNNFYPREAKVQWKVDNALQSGNSQESVTEQDSKDSTYSLSSTLTLSKADYEKHKVYACEVTHQGLSSPVTKSFNRGEC
B7: the “CDC fold increase over the parental anti-VLA-2 IgG4 antibody (LDH release, HT1080 cells, baby rabbit complement, antibody 1 µg/ml)” value in assay [2] was at least 9.6 fold.

B8: anti-VLA-2 IgG1-E269D (antibody)
heavy: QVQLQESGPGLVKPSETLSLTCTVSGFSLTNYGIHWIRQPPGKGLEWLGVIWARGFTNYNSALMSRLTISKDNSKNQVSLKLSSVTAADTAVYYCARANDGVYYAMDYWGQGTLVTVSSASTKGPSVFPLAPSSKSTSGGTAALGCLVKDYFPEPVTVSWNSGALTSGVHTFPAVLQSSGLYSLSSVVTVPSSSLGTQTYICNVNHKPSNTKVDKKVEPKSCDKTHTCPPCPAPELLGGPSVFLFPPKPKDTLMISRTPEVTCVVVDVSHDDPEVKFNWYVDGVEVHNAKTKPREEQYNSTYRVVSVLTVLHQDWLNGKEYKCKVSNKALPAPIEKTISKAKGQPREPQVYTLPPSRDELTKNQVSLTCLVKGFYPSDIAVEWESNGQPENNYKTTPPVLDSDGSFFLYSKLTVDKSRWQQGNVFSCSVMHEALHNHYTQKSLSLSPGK
light: DFVMTQSPAFLSVTPGEKVTITCSAQSSVNYIHWYQQKPDQAPKKLIYDTSKLASGVPSRFSGSGSGTDYTFTISSLEAEDAATYYCQQWTTNPLTFGQGTKVEIKRTVAAPSVFIFPPSDEQLKSGTASVVCLLNNFYPREAKVQWKVDNALQSGNSQESVTEQDSKDSTYSLSSTLTLSKADYEKHKVYACEVTHQGLSSPVTKSFNRGEC
Regarding B8, the “ADCC fold increase” value in assay [1] is 1.5 fold.

B9: anti-VLA-2 IgG1-E269D/S298A/S324N (antibody)
heavy: QVQLQESGPGLVKPSETLSLTCTVSGFSLTNYGIHWIRQPPGKGLEWLGVIWARGFTNYNSALMSRLTISKDNSKNQVSLKLSSVTAADTAVYYCARANDGVYYAMDYWGQGTLVTVSSASTKGPSVFPLAPSSKSTSGGTAALGCLVKDYFPEPVTVSWNSGALTSGVHTFPAVLQSSGLYSLSSVVTVPSSSLGTQTYICNVNHKPSNTKVDKKVEPKSCDKTHTCPPCPAPELLGGPSVFLFPPKPKDTLMISRTPEVTCVVVDVSHDDPEVKFNWYVDGVEVHNAKTKPREEQYNATYRVVSVLTVLHQDWLNGKEYKCKVNNKALPAPIEKTISKAKGQPREPQVYTLPPSRDELTKNQVSLTCLVKGFYPSDIAVEWESNGQPENNYKTTPPVLDSDGSFFLYSKLTVDKSRWQQGNVFSCSVMHEALHNHYTQKSLSLSPGK
light: DFVMTQSPAFLSVTPGEKVTITCSAQSSVNYIHWYQQKPDQAPKKLIYDTSKLASGVPSRFSGSGSGTDYTFTISSLEAEDAATYYCQQWTTNPLTFGQGTKVEIKRTVAAPSVFIFPPSDEQLKSGTASVVCLLNNFYPREAKVQWKVDNALQSGNSQESVTEQDSKDSTYSLSSTLTLSKADYEKHKVYACEVTHQGLSSPVTKSFNRGEC
Take B9: in assay [1], the “ADCC fold increase” value turned out to be 1.7 fold. Also, the “CDC fold increase (LDH release, HT1080 cells, baby rabbit complement, antibody 1 µg/ml)” value in assay [2] is at least 9 fold.
